Changes are numbered by the printed parent chain. Numbers in names are those of the source.
Assays:
[1] = substrate: NC(=O)NC(=O)O; experiment: glutamate dehydrogenase-coupled NADH assay of ammonium; assay type: biochemical, Kluyveromyces lactis; conditions: AH activity, 6 mM MgCl2, 20 mM KCl, pH 8.0, substrate as potassium salt
Excerpt: (§1) glutamate dehydrogenase-coupled NADH assay of ammonium on KlUA

[2] = substrate: NC(N)=O; experiment: as above; assay type: biochemical, Kluyveromyces lactis; conditions: overall UA activity, 5 mM ATP, 12.5 mM bicarbonate, 11 mM MgCl2, 20 mM KCl
Excerpt: as §1

[3] = biological target: the molecule itself; experiment: SEC; analytical gel filtration, Superose 6 HR column; 0.25 mg protein injected; 20 mM Tris/HCl pH 8.0, 200 mM NaCl; calibrated with standards of 29-669 kDa
[4] = pH 8.0, mutation at AH dimer interface
[5] = pH 8.0, mutation in AH N domain active site
[6] = pH 8.0, mutation in UC CT active site

B1: Kluyveromyces lactis urea amidolyase, full length (enzyme, UniProt Q6CP22 1-1829, looked up)
chain: MESTLGWSVQDWLSFHSKSTPTKSLELLENLLKSQKPAPEDPAWISLIPVEDLHHQWNILQSKSNKEELPLYGVPIAVKDNIDYKGLPTTAACPSYLYQPTRDSYVVELLRDAGAVVIGKTNLDQFATGLVGTRSPYGKTPCVFNDKYVSGGSSAGSASVVGRGIVPLSLGTDTAGSGRVPAALNNLIGLKPTKGAFSCRGVVPACKSLDCVSVFALNLSDAEIAFKVMNKPDLLEDEYSREFPKNPISQYPKDLTIAIPKEVPWFGETENPKLYTKAVASLKNTGAKIVVVDFEPLLELARCLYEGAWVAERYCATRDFLATNPPESSLDETVVNIIKGAVKFDAADAFKFEYKRQGILQKVNLLLKDIDVLCVPTCPLNPKLEEVAQEPVLVNSRQGTWTNFVNLADLAALAVPSGFRSDGLPNGITLIGKKFSDYALLDLAKRFFSVAFPNNSRTYGKFVDRRITVEDELDGPSKDTLNGVKLAVVGAHLKGLPLHWQLQKCNATYLSSPKTSNNYKLYALPKVGPVLKPGLRRVNDGTGSQIQLEVYSVPYDRFGDFIAMVPEPLGIGSVELESGEWVKSFICEEFGYTQQGTVDITKFGGFKPYIEHIQVTEAQKKKPFETVLIANRGEIAVRIMKTLKRMGIKSVAVYSDPDKYSQHVTDADFSVALHGRTAAETYLDIDKIINAAKKTGAQAIIPGYGFLSENADFSDRCSQENIVFVGPSGDAIRKLGLKHSAREIAERAKVPLVPGSGLIKDAKEAKEVAKKLEYPVMVKSTAGGGGIGLQKVDSEDDIERVFETVQHQGKSYFGDAGVFMERFVNNARHVEIQMMGDGFGKAIAIGERDCSLQRRNQKVIEETPAPNLPEATRAKMRAASERLGSLLKYKCAGTVEFIYDEQRDEFYFLEVNARLQVEHPITEMVTGLDLVEWMLRIAANDSPDFDNTKIEVSGASIEARLYAENPVKDFRPSPGQLTSVSFPSWARVDTWVKKGTNVSAEYDPTLAKIIVHGKDRNDAIMKLNQALNETAVYGCITNIDYLRSIASSKMFKEAKVATKVLDSFDYKPCAFEVLAPGANTSVQDYPGRTGYWRIGVPPSGPMDSYSFRLANRVVGNNSKSPALEITLNGPKLLFHTETVIAVSGGTVSCTLNDAQIAQNEPIEVKRGDILSVGKVTVGCRAYLSIRGGIDVPEYLGSRSTFAMGNMGGYNGRILKLGDVLFLNQPELSVSSLPAPDFEPQAAPKSLLPTLSTNKDWKIGVTCGPHGSIDLFKEEYIEQFFNDKWKVHYNSNRFGVRLIGPKPKWARSDGGEAGLHPSNAHDYVYSLGAINFTGDEPVIITCDGPSLGGFVCQAVVAEAELWKVGQLTPGDTIQFVPLSYGVARQLKESQDKSIDNFEEGSLLELSDDKILPKYENPILAVLPKKSDLSPKVTYRQAGDRYILVEYGELEFDLNICYRINRLIHQVERHQTVGIVEMSQGVRSVLIEFDGSKINQKALLKCLIAYESEIQFDKNWNVKSKIFKLPMAFEDSKTLDCVTRYRETIRSEAPWLPNNVDFIADVNDIDRNDVKNMLYSAKFMVLGLGDVFLGSPCAVPLDPRHRYLGTKYNPSRTYTARGVVGIGGMYMCIYNAEGSPGGYQLVGRTITAWDKLVIGDHPIDHPWLLTPFDQVEFYPVTEEELEVIIEDNDNGKFKIDVEESIFDHKEYLAWINENIDSIVAFQEAQGGEKADEFARLIQVANAELKKSGDDKPQDVEEYPDDAELLYSEYTGRFWKPVAAVGDHVEAGDGVIIIEAMKTEMVVGATKSGKVYKILHKNGDMVEAGDLVAVIV
notes: urea amidolyase (AH domain followed by UC domain: BC, CT, BCCP) of Kluyveromyces lactis, gene amplified from the K. lactis genome; monomer 202 kDa; also called KlUA; full-length KlUA; source: expression and purification followed protocols reported previously [14,17]; purified
B1 gave a Km [1] of 360 ± 37 µM, a kcat [1] of 34.2 ± 0.683 s⁻¹ and a kcat/Km [1] of 94900 ± 11700 M⁻¹ s⁻¹. For the same protein, the Km ([2]; pH 8.0) was 255 ± 18 µM, the kcat ([2]; pH 8.0) was 13.9 ± 0.183 s⁻¹ and the kcat/Km ([2]; pH 8.0) was 54600 ± 4600 M⁻¹ s⁻¹. For the same protein, the “stoichiometry N” value [3] was 2.

B2: KlUA (Kluyveromyces lactis NRRL Y-1140; G559E/G572E) (protein)
chain: B1 chain with G559E, G572E
notes: full-length enzyme, AH + UC domains; recombinant in E. coli BL21(DE3) Star (pET28A, nickel column); homodimer, monomer 202 kDa
Work on B2 yielded a Km ([1]; mutation at AH dimer interface) of 1040 ± 183 µM, a kcat ([1]; mutation at AH dimer interface) of 7.85 ± 0.367 s⁻¹ and a kcat/Km ([1]; mutation at AH dimer interface) of 7550 ± 1680 M⁻¹ s⁻¹. It also gave a Km [2, 4] of 361 ± 32 µM, a kcat [2, 4] of 3 ± 0.0533 s⁻¹ and a kcat/Km [2, 4] of 8320 ± 900 M⁻¹ s⁻¹.

B3: KlUA (Kluyveromyces lactis NRRL Y-1140; S177A) (protein)
chain: B1 chain with S177A
notes: as for B2
B3 showed a Km [2, 5] of 203 ± 20 µM, a kcat [2, 5] of 0.785 ± 0.0133 s⁻¹ and a kcat/Km [2, 5] of 3870 ± 450 M⁻¹ s⁻¹.

B4: KlUA (Kluyveromyces lactis NRRL Y-1140; K1605A) (protein)
chain: B1 chain with K1605A
notes: as for B2
Work on B4 yielded a Km [2, 6] of 299 ± 39 µM, a kcat [2, 6] of 1.33 ± 0.0333 s⁻¹ and a kcat/Km [2, 6] of 4450 ± 683 M⁻¹ s⁻¹.

B5: KlUAΔBCCP (Kluyveromyces lactis urea amidolyase residues 1-1741, BCCP domain removed) (domain or fragment, UniProt Q6CP22 1-1741, looked up)
chain: MESTLGWSVQDWLSFHSKSTPTKSLELLENLLKSQKPAPEDPAWISLIPVEDLHHQWNILQSKSNKEELPLYGVPIAVKDNIDYKGLPTTAACPSYLYQPTRDSYVVELLRDAGAVVIGKTNLDQFATGLVGTRSPYGKTPCVFNDKYVSGGSSAGSASVVGRGIVPLSLGTDTAGSGRVPAALNNLIGLKPTKGAFSCRGVVPACKSLDCVSVFALNLSDAEIAFKVMNKPDLLEDEYSREFPKNPISQYPKDLTIAIPKEVPWFGETENPKLYTKAVASLKNTGAKIVVVDFEPLLELARCLYEGAWVAERYCATRDFLATNPPESSLDETVVNIIKGAVKFDAADAFKFEYKRQGILQKVNLLLKDIDVLCVPTCPLNPKLEEVAQEPVLVNSRQGTWTNFVNLADLAALAVPSGFRSDGLPNGITLIGKKFSDYALLDLAKRFFSVAFPNNSRTYGKFVDRRITVEDELDGPSKDTLNGVKLAVVGAHLKGLPLHWQLQKCNATYLSSPKTSNNYKLYALPKVGPVLKPGLRRVNDGTGSQIQLEVYSVPYDRFGDFIAMVPEPLGIGSVELESGEWVKSFICEEFGYTQQGTVDITKFGGFKPYIEHIQVTEAQKKKPFETVLIANRGEIAVRIMKTLKRMGIKSVAVYSDPDKYSQHVTDADFSVALHGRTAAETYLDIDKIINAAKKTGAQAIIPGYGFLSENADFSDRCSQENIVFVGPSGDAIRKLGLKHSAREIAERAKVPLVPGSGLIKDAKEAKEVAKKLEYPVMVKSTAGGGGIGLQKVDSEDDIERVFETVQHQGKSYFGDAGVFMERFVNNARHVEIQMMGDGFGKAIAIGERDCSLQRRNQKVIEETPAPNLPEATRAKMRAASERLGSLLKYKCAGTVEFIYDEQRDEFYFLEVNARLQVEHPITEMVTGLDLVEWMLRIAANDSPDFDNTKIEVSGASIEARLYAENPVKDFRPSPGQLTSVSFPSWARVDTWVKKGTNVSAEYDPTLAKIIVHGKDRNDAIMKLNQALNETAVYGCITNIDYLRSIASSKMFKEAKVATKVLDSFDYKPCAFEVLAPGANTSVQDYPGRTGYWRIGVPPSGPMDSYSFRLANRVVGNNSKSPALEITLNGPKLLFHTETVIAVSGGTVSCTLNDAQIAQNEPIEVKRGDILSVGKVTVGCRAYLSIRGGIDVPEYLGSRSTFAMGNMGGYNGRILKLGDVLFLNQPELSVSSLPAPDFEPQAAPKSLLPTLSTNKDWKIGVTCGPHGSIDLFKEEYIEQFFNDKWKVHYNSNRFGVRLIGPKPKWARSDGGEAGLHPSNAHDYVYSLGAINFTGDEPVIITCDGPSLGGFVCQAVVAEAELWKVGQLTPGDTIQFVPLSYGVARQLKESQDKSIDNFEEGSLLELSDDKILPKYENPILAVLPKKSDLSPKVTYRQAGDRYILVEYGELEFDLNICYRINRLIHQVERHQTVGIVEMSQGVRSVLIEFDGSKINQKALLKCLIAYESEIQFDKNWNVKSKIFKLPMAFEDSKTLDCVTRYRETIRSEAPWLPNNVDFIADVNDIDRNDVKNMLYSAKFMVLGLGDVFLGSPCAVPLDPRHRYLGTKYNPSRTYTARGVVGIGGMYMCIYNAEGSPGGYQLVGRTITAWDKLVIGDHPIDHPWLLTPFDQVEFYPVTEEELEVIIEDNDNGKFKIDVEESIFDHKEYLAWINENIDSIVAFQEAQGGEKADEFARLIQVANAE
notes: urea amidolyase of Kluyveromyces lactis, residues 1-1741 (stop codon inserted after base pair 5223); lacks the C-terminal BCCP domain; monomer 190 kDa; also called KIUAΔBCCP; source: E. coli BL21 (DE3) Star, purified (Ni-NTA, anion exchange, size exclusion)
For B5, the “stoichiometry N” value [3] was 2.
